{
  "source": "patent US5319071",
  "about": "“Soluble interleukin-1 receptors” (Immunex Corporation, dated 1994)",
  "molecules": {"B1": {"name": "recombinant murine IL-1 receptor (clone 78 in pDC201) expressed on COS cells (receptor)", "chain": "LEIDVCTEYPNQIVLFLSVNEIDIRKCPLTPNKMHGDTIIWYKNDSKTPISADRDSRIHQQNEHLWFVPAKVEDSGYYYCIVRNSTYCLKTKVTVTVLENDPGLCYSTQATFPQRLHIAGDGSLVCPYVSYFKDENNELPEVQWYKNCKPLLLDNVSFFGVKDKLLVRNVAEEHRGDYICRMSYTFRGKQYPVTRVIQFITIDENKRDRPVILSPRNETIEADPGSMIQLICNVTGQFSDLVYWKWNGSEIEWNDPFLAEDYQFVEHPSTKRKYTLITTLNISEVKSQFYRYPFICVVKNTNIFESAHVQLIYPVPDFKNYLIGGFIILTATIVCCVCIYKVFKVDIVLWYRDSCSGFLPSKASDGKTYDAYILYPKTLGEGSFSDLDTFVFKLLPEVLEGQFGYKLFIYGRDDYVGEDTIEVTNENVKKSRRLIIILVRDMGGFSWLGQSSEEQIAIYNALIQEGIKIVLLELEKIQDYEKMPDSIQFIKQKHGVICWSGDFQERPQSAKTRFWKNLRYQMPAQRRSPLSKHRLLTLDPVRDTKEKLPAATHLPLG"}, "B2": {"name": "native murine IL-1 receptor of EL-4 6.1 C10 cells (receptor)", "chain": "LEIDVCTEYPNQIVLFLSVNEIDIRKCPLTPNKMHGDTIIWYKNDSKTPISADRDSRIHQQNEHLWFVPAKVEDSGYYYCIVRNSTYCLKTKVTVTVLENDPGLCYSTQATFPQRLHIAGDGSLVCPYVSYFKDENNELPEVQWYKNCKPLLLDNVSFFGVKDKLLVRNVAEEHRGDYICRMSYTFRGKQYPVTRVIQFITIDENKRDRPVILSPRNETIEADPGSMIQLICNVTGQFSDLVYWKWNGSEIEWNDPFLAEDYQFVEHPSTKRKYTLITTLNISEVKSQFYRYPFICVVKNTNIFESAHVQLIYPVPDFKNYLIGGFIILTATIVCCVCIYKVFKVDIVLWYRDSCSGFLPSKASDGKTYDAYILYPKTLGEGSFSDLDTFVFKLLPEVLEGQFGYKLFIYGRDDYVGEDTIEVTNENVKKSRRLIIILVRDMGGFSWLGQSSEEQIAIYNALIQEGIKIVLLELEKIQDYEKMPDSIQFIKQKHGVICWSGDFQERPQSAKTRFWKNLRYQMPAQRRSPLSKHRLLTLDPVRDTKEKLPAATHLPLG", "modifications": "glycoprotein (N-linked carbohydrate), Mr 82,000"}},
  "key": {"[1]": {"target": "native murine IL-1 receptor of EL-4 6.1 C10 cells (murine)"}, "[2]": {"target": "T1, recombinant human IL-1α (polypeptide composed of the C-terminal 157 residues of IL-1α, Mr 17,500 form) (human, UniProt P01583, 125I label (chloramine-T method, ca 1 atom of iodine per IL-1α molecule) where used as tracer; fluorescein isothiocyanate conjugate in flow cytometry; unlabeled as competitor; coupled to Sepharose 4B …)", "T1 sequence": "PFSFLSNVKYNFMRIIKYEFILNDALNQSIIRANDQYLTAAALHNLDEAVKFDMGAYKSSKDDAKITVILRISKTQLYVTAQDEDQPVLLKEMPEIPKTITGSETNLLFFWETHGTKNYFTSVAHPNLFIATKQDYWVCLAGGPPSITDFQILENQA", "assay": "direct binding of 125I-IL-1α to COS cells transfected with clone 78, Scatchard analysis"}, "[3]": {"target": "T1, recombinant human IL-1α (polypeptide …)", "assay": "direct binding of 125I-IL-1α to EL-4 6.1 C10 cells, Scatchard analysis"}, "[4]": {"target": "T1, recombinant human IL-1α (polypeptide …)", "assay": "receptor in Triton X-100 solution (diluted extract) inhibiting 125I-IL-1α binding to extract on nitrocellulose; competitive inhibition model"}},
  "data": [
    {"molecule": "recombinant human IL-1α (polypeptide composed of the C-terminal 157 residues of IL-1α, Mr 17,500 form) (from UniProt P01583) (ligand)", "values": [
      {"measurement": "IL-2 production from EL-4 6.1 C10 cells", "setting": "[1]", "value": 100, "unit": "%"}
    ]},
    {"molecule": "B1", "values": [
      {"measurement": "Ka", "setting": "[2]", "value": "3e+09", "unit": "M⁻¹"}
    ]},
    {"molecule": "B2", "values": [
      {"measurement": "Ka", "setting": "[3]", "value": "4.3e+09", "unit": "M⁻¹"},
      {"measurement": "Ka", "setting": "[4]", "value": "4.5e+09", "unit": "M⁻¹"}
    ]}
  ]
}
